The results in this text go back to publication PMC9482650, “Quantitative fragmentomics allow affinity mapping of interactomes” (Nature Communications, 2022).

Residue numbers refer to the chain shown, from its start.

Some targets named below: GRASP, Q7Z6J2; MAGI1_2, Q96QZ7; LAP2, Q96RT1; LNX1_2, Q8TBB1; PICK1, Q9NRD5; FRMPD2_3, Q68DX3; SNX27, Q96L92; Inadl_6, Q8NI35; GRID2IP_2, A4D2P6; FRMPD2_2, Q68DX3.
What all share (test): holdup assay
What all share (parameters): key: below the threshold = too weak to quantify, mostly under pKd 3.1 to 4
What all share (conditions): plain residues with an end cap or a label only (N-terminal biotin on a linker: ado-ado)

For the next assay, the target named is T1, LIN7B, Q9HAP6.
T1 sequence (Q9HAP6 88-185, limits assumed, looked up): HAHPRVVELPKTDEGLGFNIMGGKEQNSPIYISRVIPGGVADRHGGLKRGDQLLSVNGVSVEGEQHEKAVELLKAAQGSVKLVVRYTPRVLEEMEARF

The next assay deals with T2, ARHGEF11, O15085.
T2 sequence (O15085 42-136, limits assumed, looked up): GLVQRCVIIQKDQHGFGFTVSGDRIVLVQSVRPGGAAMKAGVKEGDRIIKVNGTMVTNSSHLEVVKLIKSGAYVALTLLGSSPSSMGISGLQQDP

A further assay addresses T3, GRIP1_4, Q9Y3R0.
T3 sequence (Q9Y3R0 467-571, limits assumed, looked up): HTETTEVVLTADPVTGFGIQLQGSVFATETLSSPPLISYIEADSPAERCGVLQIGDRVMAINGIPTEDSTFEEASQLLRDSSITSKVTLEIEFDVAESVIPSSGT

The target in another assay is T4, DLG3_2, Q92796.
T4 sequence (Q92796 221-321, limits assumed, looked up): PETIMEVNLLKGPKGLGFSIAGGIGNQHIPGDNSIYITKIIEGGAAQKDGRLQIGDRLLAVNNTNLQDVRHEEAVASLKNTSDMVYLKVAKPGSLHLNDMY

In a further assay the target is T5, SNTB1, Q13884.
T5 sequence (Q13884 107-205, limits assumed, looked up): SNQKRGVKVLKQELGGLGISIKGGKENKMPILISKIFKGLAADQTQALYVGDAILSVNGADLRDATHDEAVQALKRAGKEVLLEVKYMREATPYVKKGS

The target in another assay is T6, LIN7C, Q9NUP9.
T6 sequence (Q9NUP9 88-185, limits assumed, looked up): T1 sequence (Q9HAP6 88-185, limits assumed, looked up) with A2S, D13E, V35I, V40I, Q65H, S79K, R89K, A96S

The target of a further assay is T7, DVL3, Q92997.
T7 sequence (Q92997 244-331, limits assumed, looked up): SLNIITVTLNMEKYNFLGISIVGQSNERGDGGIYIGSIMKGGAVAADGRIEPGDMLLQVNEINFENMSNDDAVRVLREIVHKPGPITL

Another assay addresses T8, TX1BP3, O14907.
T8 sequence (O14907 10-122, limits assumed, looked up): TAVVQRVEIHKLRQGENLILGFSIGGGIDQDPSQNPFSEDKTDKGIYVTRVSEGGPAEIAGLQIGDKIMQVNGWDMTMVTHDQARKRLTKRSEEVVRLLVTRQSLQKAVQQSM

For a further assay, the target named is T9, PDZD2_2, O15018.
T9 sequence (O15018 329-429, limits assumed, looked up): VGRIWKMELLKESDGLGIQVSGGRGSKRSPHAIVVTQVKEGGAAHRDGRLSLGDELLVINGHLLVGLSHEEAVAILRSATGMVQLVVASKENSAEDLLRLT

For a further assay, the target named is T10, APBA1_1, Q02410.
T10 sequence (Q02410 651-752, limits assumed, looked up): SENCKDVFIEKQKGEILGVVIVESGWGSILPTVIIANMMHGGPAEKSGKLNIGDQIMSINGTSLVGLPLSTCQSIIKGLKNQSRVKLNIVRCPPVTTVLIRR

The target of a further assay is T11, TIAM2, Q8IVF5.
T11 sequence (Q8IVF5 885-986, limits assumed, looked up): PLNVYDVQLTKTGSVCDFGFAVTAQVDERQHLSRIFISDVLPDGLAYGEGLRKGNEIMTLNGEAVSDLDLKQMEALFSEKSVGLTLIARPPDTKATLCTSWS

A further assay concerns the target T12, MPDZ_5, O75970.
T12 sequence (O75970 695-796, limits assumed, looked up): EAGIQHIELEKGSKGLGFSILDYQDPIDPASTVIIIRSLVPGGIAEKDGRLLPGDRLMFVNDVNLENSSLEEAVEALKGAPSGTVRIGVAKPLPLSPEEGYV

The target of another assay is T13, MPDZ_10, O75970.
T13 sequence (O75970 1624-1722, limits assumed, looked up): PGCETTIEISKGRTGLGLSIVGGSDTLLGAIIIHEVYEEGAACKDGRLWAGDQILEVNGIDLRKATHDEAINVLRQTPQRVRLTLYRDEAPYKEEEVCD

Sequence of FRMPD2_3, Q68DX3 (Q68DX3 1073-1166): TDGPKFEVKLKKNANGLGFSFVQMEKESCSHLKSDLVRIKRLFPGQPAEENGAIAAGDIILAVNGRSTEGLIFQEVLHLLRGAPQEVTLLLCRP
Sequence of LAP2, Q96RT1 (Q96RT1 other isoform, or with tags, fused parts or gaps): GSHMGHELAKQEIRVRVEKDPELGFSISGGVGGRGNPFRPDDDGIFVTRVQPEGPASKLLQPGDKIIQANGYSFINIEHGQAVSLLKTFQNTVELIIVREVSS
Sequence of Inadl_6, Q8NI35 (Q8NI35 1058-1167): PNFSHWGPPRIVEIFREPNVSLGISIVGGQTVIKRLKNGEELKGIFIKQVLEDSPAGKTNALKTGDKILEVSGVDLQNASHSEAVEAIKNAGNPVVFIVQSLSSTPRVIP
Sequence of GRASP, Q7Z6J2 (Q7Z6J2 96-193): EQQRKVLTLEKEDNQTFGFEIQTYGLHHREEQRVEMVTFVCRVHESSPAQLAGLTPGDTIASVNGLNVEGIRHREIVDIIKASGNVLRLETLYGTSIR
Sequence of FRMPD2_2, Q68DX3 (Q68DX3 944-1038): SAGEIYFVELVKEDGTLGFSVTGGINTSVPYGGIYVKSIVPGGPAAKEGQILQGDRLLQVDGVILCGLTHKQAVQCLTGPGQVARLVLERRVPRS
Sequence of PICK1, Q9NRD5 (Q9NRD5 17-115): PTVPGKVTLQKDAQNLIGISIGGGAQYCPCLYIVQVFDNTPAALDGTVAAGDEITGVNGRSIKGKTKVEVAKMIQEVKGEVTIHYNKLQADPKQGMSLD
Sequence of MAGI1_2, Q96QZ7 (Q96QZ7 456-580): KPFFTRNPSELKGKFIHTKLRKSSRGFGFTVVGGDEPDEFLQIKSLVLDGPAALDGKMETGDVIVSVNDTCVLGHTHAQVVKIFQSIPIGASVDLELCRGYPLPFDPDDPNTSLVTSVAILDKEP
Sequence of GRID2IP_2, A4D2P6 (A4D2P6 272-370): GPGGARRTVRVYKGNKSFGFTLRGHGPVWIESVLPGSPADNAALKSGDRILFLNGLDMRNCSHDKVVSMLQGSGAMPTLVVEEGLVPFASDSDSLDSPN
Sequence of LNX1_2, Q8TBB1 (Q8TBB1 371-470): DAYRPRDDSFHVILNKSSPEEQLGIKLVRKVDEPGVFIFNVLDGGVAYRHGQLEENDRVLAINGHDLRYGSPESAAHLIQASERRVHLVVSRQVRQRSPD

For the molecule KSRPENGTVC [TMEM178B, H3BS89], the pKd result with LIN7B, Q9HAP6 was “below the threshold”; with GRASP, Q7Z6J2, “below the threshold”; with MAGI1_2, Q96QZ7, “below the threshold”; with ARHGEF11, O15085, 3.89; with GRIP1_4, Q9Y3R0, “below the threshold”; with LAP2, Q96RT1, “below the threshold”. Also, the pKd is 4.05 with LNX1_2, Q8TBB1; 3.54 in the assay with DLG3_2, Q92796; “below the threshold” with PICK1, Q9NRD5; 3.56 with SNTB1, Q13884; “below the threshold” with FRMPD2_3, Q68DX3; 3.58 with SNX27, Q96L92. For the same molecule, the pKd entry with LIN7C, Q9NUP9 was “below the threshold”; with DVL3, Q92997, “below the threshold”; with Inadl_6, Q8NI35, “below the threshold”; with TX1BP3, O14907, “below the threshold”; with PDZD2_2, O15018, 3.59; with APBA1_1, Q02410, “below the threshold”. In addition, the pKd entry with TIAM2, Q8IVF5 is “below the threshold”; with MPDZ_5, O75970, “below the threshold”; in the assay with MPDZ_10, O75970, “below the threshold”; in the assay with GRID2IP_2, A4D2P6 it was 3.66; with FRMPD2_2, Q68DX3, “below the threshold”.

With EAVTVESTSL [SLC22A11, Q9NSA0], the pKd entry in the assay with LIN7B, Q9HAP6 was “below the threshold”; with GRASP, Q7Z6J2, 5.36; with MAGI1_2, Q96QZ7, “below the threshold”; with ARHGEF11, O15085 it was 4.95; with GRIP1_4, Q9Y3R0, “below the threshold”; with LAP2, Q96RT1, “below the threshold”. Further, the pKd entry in the assay with LNX1_2, Q8TBB1 was “below the threshold”; in the assay with DLG3_2, Q92796, “below the threshold”; with PICK1, Q9NRD5, “below the threshold”; with SNTB1, Q13884 it was 3.94; with FRMPD2_3, Q68DX3, “below the threshold”; with SNX27, Q96L92, 5.41. For the same molecule, the pKd result with LIN7C, Q9NUP9 was “below the threshold”; in the assay with DVL3, Q92997 it was “below the threshold”; with Inadl_6, Q8NI35, 3.94; in the assay with TX1BP3, O14907, 4.25; in the assay with PDZD2_2, O15018, 4.4; with APBA1_1, Q02410 it was “below the threshold”. Moreover, the pKd result was “below the threshold” with TIAM2, Q8IVF5; “below the threshold” in the assay with MPDZ_5, O75970; “below the threshold” with MPDZ_10, O75970; 5.32 in the assay with GRID2IP_2, A4D2P6; “below the threshold” with FRMPD2_2, Q68DX3.

With QQGLLPHSSC [TYRO3, Q06418], the negative logarithm of the Kd (pKd) result was “below the threshold” with LIN7B, Q9HAP6; 3.97 in the assay with GRASP, Q7Z6J2; “below the threshold” with MAGI1_2, Q96QZ7; 3.55 in the assay with ARHGEF11, O15085; “below the threshold” with GRIP1_4, Q9Y3R0; “below the threshold” with LAP2, Q96RT1. Besides, the pKd entry with LNX1_2, Q8TBB1 is “below the threshold”; with DLG3_2, Q92796, “below the threshold”; in the assay with PICK1, Q9NRD5, “below the threshold”; with SNTB1, Q13884, “below the threshold”; in the assay with FRMPD2_3, Q68DX3 it was “below the threshold”; with SNX27, Q96L92, “below the threshold”. Besides, the pKd with LIN7C, Q9NUP9 is 3.95; with DVL3, Q92997, “below the threshold”; with Inadl_6, Q8NI35, “below the threshold”; with TX1BP3, O14907, “below the threshold”; in the assay with PDZD2_2, O15018, 3.55; with APBA1_1, Q02410, “below the threshold”. Further, the negative logarithm of the Kd (pKd) entry was “below the threshold” with TIAM2, Q8IVF5; “below the threshold” with MPDZ_5, O75970; 3.72 in the assay with MPDZ_10, O75970; 3.75 in the assay with GRID2IP_2, A4D2P6; “below the threshold” with FRMPD2_2, Q68DX3.

For PEKVSNTTVV [IGSF5, Q9NSI5], the pKd with LIN7B, Q9HAP6 was 3.69; in the assay with GRASP, Q7Z6J2, 4.38; in the assay with MAGI1_2, Q96QZ7, 3.54; in the assay with ARHGEF11, O15085 it was 4.24; with GRIP1_4, Q9Y3R0, “below the threshold”; in the assay with LAP2, Q96RT1, “below the threshold”. Also, the pKd is 3.73 with LNX1_2, Q8TBB1; 4.73 with DLG3_2, Q92796; 4.15 with PICK1, Q9NRD5; 3.93 with SNTB1, Q13884; “below the threshold” in the assay with FRMPD2_3, Q68DX3; 4.51 with SNX27, Q96L92. Moreover, the pKd entry in the assay with LIN7C, Q9NUP9 is “below the threshold”; with DVL3, Q92997, “below the threshold”; with Inadl_6, Q8NI35 it was “below the threshold”; in the assay with TX1BP3, O14907 it was “below the threshold”; in the assay with PDZD2_2, O15018, 4.06; with APBA1_1, Q02410, “below the threshold”. Further, the pKd is 4.04 with TIAM2, Q8IVF5; “below the threshold” with MPDZ_5, O75970; “below the threshold” with MPDZ_10, O75970; “below the threshold” in the assay with GRID2IP_2, A4D2P6; “below the threshold” with FRMPD2_2, Q68DX3.

For the molecule IQISELETNV [SLC1A7, O00341], the pKd entry was “below the threshold” with LIN7B, Q9HAP6; “below the threshold” with GRASP, Q7Z6J2; “below the threshold” in the assay with MAGI1_2, Q96QZ7; 3.94 with ARHGEF11, O15085; “below the threshold” with GRIP1_4, Q9Y3R0; 4.5 with LAP2, Q96RT1. Moreover, the pKd entry with LNX1_2, Q8TBB1 was “below the threshold”; with DLG3_2, Q92796, 4.66; in the assay with PICK1, Q9NRD5 it was 4.18; with SNTB1, Q13884, 5.37; with FRMPD2_3, Q68DX3, “below the threshold”; with SNX27, Q96L92 it was 5.65. Further, the pKd with LIN7C, Q9NUP9 is 3.97; with DVL3, Q92997, “below the threshold”; with Inadl_6, Q8NI35, 4.04; in the assay with TX1BP3, O14907 it was 4.03; with PDZD2_2, O15018, 4.97; with APBA1_1, Q02410 it was “below the threshold”. Further, the pKd result was “below the threshold” with TIAM2, Q8IVF5; “below the threshold” in the assay with MPDZ_5, O75970; “below the threshold” with MPDZ_10, O75970; 3.49 with GRID2IP_2, A4D2P6; 5.03 with FRMPD2_2, Q68DX3.
